Source: article PMC4411359

Target: YFP-tagged CREB-binding protein (UniProt Q92793)
Assay: MST

Chain of UniProt Q92793 (Q92793 whole entry): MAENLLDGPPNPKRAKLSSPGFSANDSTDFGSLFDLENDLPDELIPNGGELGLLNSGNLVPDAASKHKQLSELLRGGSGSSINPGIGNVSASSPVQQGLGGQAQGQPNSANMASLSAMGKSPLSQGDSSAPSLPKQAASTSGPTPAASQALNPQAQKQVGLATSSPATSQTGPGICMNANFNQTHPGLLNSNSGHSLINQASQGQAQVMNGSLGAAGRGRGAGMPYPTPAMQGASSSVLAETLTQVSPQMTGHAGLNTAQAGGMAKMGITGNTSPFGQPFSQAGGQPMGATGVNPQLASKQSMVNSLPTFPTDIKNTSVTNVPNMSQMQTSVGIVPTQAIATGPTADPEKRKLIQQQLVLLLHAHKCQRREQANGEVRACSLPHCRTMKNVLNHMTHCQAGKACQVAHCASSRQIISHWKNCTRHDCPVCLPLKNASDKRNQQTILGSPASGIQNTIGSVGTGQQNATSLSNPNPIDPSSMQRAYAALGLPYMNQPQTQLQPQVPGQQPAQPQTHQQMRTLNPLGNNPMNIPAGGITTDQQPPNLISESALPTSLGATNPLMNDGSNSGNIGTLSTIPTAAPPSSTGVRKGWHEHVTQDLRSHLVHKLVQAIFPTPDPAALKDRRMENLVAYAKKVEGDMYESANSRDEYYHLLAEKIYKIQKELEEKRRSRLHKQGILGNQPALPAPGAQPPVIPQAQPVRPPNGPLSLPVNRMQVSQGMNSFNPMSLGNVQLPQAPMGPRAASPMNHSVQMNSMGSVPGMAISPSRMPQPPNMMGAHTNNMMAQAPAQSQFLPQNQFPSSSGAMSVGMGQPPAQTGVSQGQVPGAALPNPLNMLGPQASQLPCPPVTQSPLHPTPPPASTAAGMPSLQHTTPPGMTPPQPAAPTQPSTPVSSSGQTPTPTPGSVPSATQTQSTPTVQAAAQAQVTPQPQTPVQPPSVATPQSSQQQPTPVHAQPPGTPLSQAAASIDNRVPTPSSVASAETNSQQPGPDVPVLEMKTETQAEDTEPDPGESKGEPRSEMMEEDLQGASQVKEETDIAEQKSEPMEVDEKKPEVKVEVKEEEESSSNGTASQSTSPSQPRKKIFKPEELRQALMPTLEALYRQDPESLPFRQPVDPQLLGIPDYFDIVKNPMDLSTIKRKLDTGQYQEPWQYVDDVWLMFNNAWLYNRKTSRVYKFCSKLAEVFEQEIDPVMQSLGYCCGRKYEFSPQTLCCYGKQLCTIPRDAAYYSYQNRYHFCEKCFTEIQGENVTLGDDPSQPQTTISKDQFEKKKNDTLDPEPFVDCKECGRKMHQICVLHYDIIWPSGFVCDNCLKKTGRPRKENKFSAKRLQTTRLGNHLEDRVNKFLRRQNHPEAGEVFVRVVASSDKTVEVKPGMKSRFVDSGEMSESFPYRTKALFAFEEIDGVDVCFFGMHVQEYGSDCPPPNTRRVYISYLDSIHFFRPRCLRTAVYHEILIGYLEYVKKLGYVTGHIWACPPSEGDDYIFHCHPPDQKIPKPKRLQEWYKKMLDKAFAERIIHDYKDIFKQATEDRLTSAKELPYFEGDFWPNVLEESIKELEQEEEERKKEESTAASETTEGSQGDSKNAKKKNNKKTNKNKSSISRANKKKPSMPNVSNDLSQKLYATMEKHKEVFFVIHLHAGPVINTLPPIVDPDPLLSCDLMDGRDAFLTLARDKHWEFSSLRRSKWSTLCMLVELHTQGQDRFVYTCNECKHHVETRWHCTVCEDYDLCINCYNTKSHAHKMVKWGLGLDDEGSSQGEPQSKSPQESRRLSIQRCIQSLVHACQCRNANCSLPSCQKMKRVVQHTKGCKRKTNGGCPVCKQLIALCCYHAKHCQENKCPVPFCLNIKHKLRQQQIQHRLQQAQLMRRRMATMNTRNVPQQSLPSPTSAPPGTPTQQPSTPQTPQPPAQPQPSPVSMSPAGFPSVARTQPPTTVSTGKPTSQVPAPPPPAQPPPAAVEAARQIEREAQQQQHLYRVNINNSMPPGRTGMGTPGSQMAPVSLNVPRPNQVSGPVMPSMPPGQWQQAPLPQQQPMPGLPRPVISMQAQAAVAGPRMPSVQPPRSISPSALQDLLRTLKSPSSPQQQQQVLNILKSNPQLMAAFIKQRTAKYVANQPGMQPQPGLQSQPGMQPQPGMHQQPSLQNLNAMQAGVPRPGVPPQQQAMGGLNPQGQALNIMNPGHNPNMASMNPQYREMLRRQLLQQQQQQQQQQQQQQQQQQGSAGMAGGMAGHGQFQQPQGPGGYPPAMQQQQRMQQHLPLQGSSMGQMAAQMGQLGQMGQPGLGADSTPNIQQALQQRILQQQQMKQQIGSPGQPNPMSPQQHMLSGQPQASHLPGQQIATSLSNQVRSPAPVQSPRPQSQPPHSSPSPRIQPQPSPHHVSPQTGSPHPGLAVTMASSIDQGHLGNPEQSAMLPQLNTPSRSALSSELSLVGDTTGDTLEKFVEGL

fold decrease of affinity against wild-type HA-TDG: > 3 fold
Substance: HA-tagged human thymine DNA glycosylase P65A mutant (from UniProt Q13569 1-410) (enzyme)
